Assay results as given in patent publication US20190185537A1 (AstraZeneca / MedImmune, published 2019).
Like-named read-outs stand apart in the source and are kept apart here. Numbered stars: 1 amine (or outer) side, 2 acyl side, 3 side chain; on linkers, the order of the positions; unused ones are H or OH. Side chains are listed from the residue outwards. Ends that are not written are not given here. * marks the point of attachment. γGlu = O=C(O)[C@H](CCC(=O)[*:2])N[*:1]; Palmitoyl = CCCCCCCCCCCCCCCC(=O)*

T1: human glucose-dependent insulinotropic peptide (gastric inhibitory polypeptide) receptor (human, UniProt P48546 22-466)
T1 sequence (looked up): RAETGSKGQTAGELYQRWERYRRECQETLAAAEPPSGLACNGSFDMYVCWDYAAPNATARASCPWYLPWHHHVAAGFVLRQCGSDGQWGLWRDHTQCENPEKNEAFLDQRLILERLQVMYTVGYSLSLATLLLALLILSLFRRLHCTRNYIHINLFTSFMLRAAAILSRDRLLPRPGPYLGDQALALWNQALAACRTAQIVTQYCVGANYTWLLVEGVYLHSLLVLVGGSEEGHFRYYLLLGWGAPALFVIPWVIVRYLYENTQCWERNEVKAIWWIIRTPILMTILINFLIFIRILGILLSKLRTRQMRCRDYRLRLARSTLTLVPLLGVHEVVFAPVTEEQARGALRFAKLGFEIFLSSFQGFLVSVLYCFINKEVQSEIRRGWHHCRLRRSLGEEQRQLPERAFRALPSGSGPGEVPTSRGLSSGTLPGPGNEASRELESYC

T2: mouse GLP-1 receptor (mouse, UniProt O35659 22-463)
T2 sequence (looked up): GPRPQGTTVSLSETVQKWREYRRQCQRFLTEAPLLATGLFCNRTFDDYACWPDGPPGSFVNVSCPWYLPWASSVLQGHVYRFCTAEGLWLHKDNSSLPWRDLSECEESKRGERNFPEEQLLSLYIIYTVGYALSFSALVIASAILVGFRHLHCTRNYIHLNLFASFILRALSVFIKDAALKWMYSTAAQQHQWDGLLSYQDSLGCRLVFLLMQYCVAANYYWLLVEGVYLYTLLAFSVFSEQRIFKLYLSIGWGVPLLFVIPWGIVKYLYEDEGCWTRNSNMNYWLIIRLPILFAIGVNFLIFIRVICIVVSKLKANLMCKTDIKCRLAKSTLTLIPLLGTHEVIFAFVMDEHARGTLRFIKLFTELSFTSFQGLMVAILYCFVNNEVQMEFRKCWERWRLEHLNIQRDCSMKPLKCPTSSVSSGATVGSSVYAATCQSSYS

T3: rat GLP-1 receptor (rat, UniProt P32301 22-463)
T3 sequence (looked up): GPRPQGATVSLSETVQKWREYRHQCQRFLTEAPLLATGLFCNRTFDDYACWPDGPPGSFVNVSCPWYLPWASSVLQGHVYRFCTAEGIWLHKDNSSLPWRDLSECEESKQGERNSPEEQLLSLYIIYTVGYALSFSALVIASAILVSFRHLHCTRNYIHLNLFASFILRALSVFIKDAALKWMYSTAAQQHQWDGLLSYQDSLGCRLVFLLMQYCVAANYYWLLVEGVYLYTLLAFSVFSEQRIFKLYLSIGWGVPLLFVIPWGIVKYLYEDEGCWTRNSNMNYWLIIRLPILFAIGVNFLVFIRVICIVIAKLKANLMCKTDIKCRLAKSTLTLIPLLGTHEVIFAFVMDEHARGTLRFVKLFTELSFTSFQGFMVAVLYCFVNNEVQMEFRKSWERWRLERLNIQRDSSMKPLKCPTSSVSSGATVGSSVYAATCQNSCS

B1: G973 (peptide)
peptide: HSQGTFTSDK([γGlu-Palmitoyl])SSYLDSRSARDFVAWLEAGG-OH
modifications: N-terminus assumed
SMILES: CCCCCCCCCCCCCCCC(=O)N[C@@H](CCC(=O)NCCCC[C@H](NC(=O)[C@H](CC(=O)O)NC(=O)[C@H](CO)NC(=O)[C@@H](NC(=O)[C@H](Cc1ccccc1)NC(=O)[C@@H](NC(=O)CNC(=O)[C@H](CCC(N)=O)NC(=O)[C@H](CO)NC(=O)[C@@H](N)Cc1c[nH]cn1)[C@@H](C)O)[C@@H](C)O)C(=O)N[C@@H](CO)C(=O)N[C@@H](CO)C(=O)N[C@@H](Cc1ccc(O)cc1)C(=O)N[C@@H](CC(C)C)C(=O)N[C@@H](CC(=O)O)C(=O)N[C@@H](CO)C(=O)N[C@@H](CCCNC(=N)N)C(=O)N[C@@H](CO)C(=O)N[C@@H](C)C(=O)N[C@@H](CCCNC(=N)N)C(=O)N[C@@H](CC(=O)O)C(=O)N[C@@H](Cc1ccccc1)C(=O)N[C@H](C(=O)N[C@@H](C)C(=O)N[C@@H](Cc1c[nH]c2ccccc12)C(=O)N[C@@H](CC(C)C)C(=O)N[C@@H](CCC(=O)O)C(=O)N[C@@H](C)C(=O)NCC(=O)NCC(=O)O)C(C)C)C(=O)O
B2: G730 (peptide)
peptide: HSQGTFTSDYSKK([γGlu-Palmitoyl])LDSERARDFVAWLVAGG-NH2
modifications: N-terminus assumed
SMILES: CCCCCCCCCCCCCCCC(=O)N[C@@H](CCC(=O)NCCCC[C@H](NC(=O)[C@H](CCCCN)NC(=O)[C@H](CO)NC(=O)[C@H](Cc1ccc(O)cc1)NC(=O)[C@H](CC(=O)O)NC(=O)[C@H](CO)NC(=O)[C@@H](NC(=O)[C@H](Cc1ccccc1)NC(=O)[C@@H](NC(=O)CNC(=O)[C@H](CCC(N)=O)NC(=O)[C@H](CO)NC(=O)[C@@H](N)Cc1c[nH]cn1)[C@@H](C)O)[C@@H](C)O)C(=O)N[C@@H](CC(C)C)C(=O)N[C@@H](CC(=O)O)C(=O)N[C@@H](CO)C(=O)N[C@@H](CCC(=O)O)C(=O)N[C@@H](CCCNC(=N)N)C(=O)N[C@@H](C)C(=O)N[C@@H](CCCNC(=N)N)C(=O)N[C@@H](CC(=O)O)C(=O)N[C@@H](Cc1ccccc1)C(=O)N[C@H](C(=O)N[C@@H](C)C(=O)N[C@@H](Cc1c[nH]c2ccccc12)C(=O)N[C@@H](CC(C)C)C(=O)N[C@H](C(=O)N[C@@H](C)C(=O)NCC(=O)NCC(N)=O)C(C)C)C(C)C)C(=O)O
B3: G934 (peptide)
peptide: HSQGTFTSDK([γGlu-Palmitoyl])SKYLEGQAAKEFIAWLEKGR-OH
modifications: N-terminus assumed
SMILES: CCCCCCCCCCCCCCCC(=O)N[C@@H](CCC(=O)NCCCC[C@H](NC(=O)[C@H](CC(=O)O)NC(=O)[C@H](CO)NC(=O)[C@@H](NC(=O)[C@H](Cc1ccccc1)NC(=O)[C@@H](NC(=O)CNC(=O)[C@H](CCC(N)=O)NC(=O)[C@H](CO)NC(=O)[C@@H](N)Cc1c[nH]cn1)[C@@H](C)O)[C@@H](C)O)C(=O)N[C@@H](CO)C(=O)N[C@@H](CCCCN)C(=O)N[C@@H](Cc1ccc(O)cc1)C(=O)N[C@@H](CC(C)C)C(=O)N[C@@H](CCC(=O)O)C(=O)NCC(=O)N[C@@H](CCC(N)=O)C(=O)N[C@@H](C)C(=O)N[C@@H](C)C(=O)N[C@@H](CCCCN)C(=O)N[C@@H](CCC(=O)O)C(=O)N[C@@H](Cc1ccccc1)C(=O)N[C@H](C(=O)N[C@@H](C)C(=O)N[C@@H](Cc1c[nH]c2ccccc12)C(=O)N[C@@H](CC(C)C)C(=O)N[C@@H](CCC(=O)O)C(=O)N[C@@H](CCCCN)C(=O)NCC(=O)N[C@@H](CCCNC(=N)N)C(=O)O)[C@@H](C)CC)C(=O)O

Tests used:
human glucagon receptor [1] = molecular target: T4, human glucagon receptor (human, UniProt P47871 26-477); test: cell-based or functional assay
human GLP-1 receptor [2] = molecular target: T5, human GLP-1 receptor (human, UniProt P43220 24-463); test: cell-based or functional assay
[3] = molecular target: T1, human glucose-dependent insulinotropic …; test: cell-based or functional assay
human GLP-1 receptor [4] = molecular target: T5, human GLP-1 receptor; test: cell-based or functional assay; remark: listed apart in the source
human glucagon receptor [5] = molecular target: T4, human glucagon receptor; test: cell-based or functional assay; remark: listed apart in the source
human GLP-1 receptor [6] = molecular target: T5, human GLP-1 receptor; test: cell-based or functional assay; remark: listed apart in the source
[7] = molecular target: T1, human glucose-dependent insulinotropic …; test: cell-based or functional assay; remark: listed apart in the source
human glucagon receptor [8] = molecular target: T4, human glucagon receptor; test: cell-based or functional assay; remark: listed apart in the source
human GLP-1 receptor [9] = molecular target: T5, human GLP-1 receptor; test: cell-based or functional assay; remark: listed apart in the source
[10] = molecular target: T1, human glucose-dependent insulinotropic …; test: cell-based or functional assay; remark: listed apart in the source
human glucagon receptor [11] = molecular target: T4, human glucagon receptor; test: cell-based or functional assay; remark: listed apart in the source
human GLP-1 receptor [12] = molecular target: T5, human GLP-1 receptor; test: cell-based or functional assay; remark: listed apart in the source
mouse GLP-1 receptor = molecular target: T2, mouse GLP-1 receptor; test: cell-based or functional assay
mouse glucagon receptor = mouse glucagon receptor (mouse, UniProt Q61606 27-485); test: cell-based or functional assay
rat GLP-1 receptor = molecular target: T3, rat GLP-1 receptor; test: cell-based or functional assay
rat glucagon receptor = rat glucagon receptor (rat, UniProt P30082 27-485); test: cell-based or functional assay
[13] = molecular target: human serum albumin (human) (UniProt P02768); test: calculated from the variation in cAMP generation with the HSA concentration
Chain of human serum albumin (human) (P02768 25-609 limits assumed): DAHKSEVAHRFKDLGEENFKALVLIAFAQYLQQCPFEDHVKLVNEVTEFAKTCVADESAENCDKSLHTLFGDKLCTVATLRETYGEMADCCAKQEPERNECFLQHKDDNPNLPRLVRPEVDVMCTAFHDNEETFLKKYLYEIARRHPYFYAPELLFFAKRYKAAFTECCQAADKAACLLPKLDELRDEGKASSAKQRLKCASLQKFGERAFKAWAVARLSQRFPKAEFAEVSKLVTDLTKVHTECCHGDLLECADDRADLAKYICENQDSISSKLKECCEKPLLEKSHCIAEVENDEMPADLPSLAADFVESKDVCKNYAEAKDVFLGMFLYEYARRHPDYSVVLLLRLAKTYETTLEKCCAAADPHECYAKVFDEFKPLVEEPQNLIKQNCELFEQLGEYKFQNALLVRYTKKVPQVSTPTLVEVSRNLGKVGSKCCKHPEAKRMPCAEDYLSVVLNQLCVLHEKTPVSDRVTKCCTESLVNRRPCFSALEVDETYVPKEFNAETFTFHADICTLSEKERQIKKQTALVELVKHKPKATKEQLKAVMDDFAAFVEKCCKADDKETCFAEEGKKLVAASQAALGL

T4 sequence (P47871 26-477): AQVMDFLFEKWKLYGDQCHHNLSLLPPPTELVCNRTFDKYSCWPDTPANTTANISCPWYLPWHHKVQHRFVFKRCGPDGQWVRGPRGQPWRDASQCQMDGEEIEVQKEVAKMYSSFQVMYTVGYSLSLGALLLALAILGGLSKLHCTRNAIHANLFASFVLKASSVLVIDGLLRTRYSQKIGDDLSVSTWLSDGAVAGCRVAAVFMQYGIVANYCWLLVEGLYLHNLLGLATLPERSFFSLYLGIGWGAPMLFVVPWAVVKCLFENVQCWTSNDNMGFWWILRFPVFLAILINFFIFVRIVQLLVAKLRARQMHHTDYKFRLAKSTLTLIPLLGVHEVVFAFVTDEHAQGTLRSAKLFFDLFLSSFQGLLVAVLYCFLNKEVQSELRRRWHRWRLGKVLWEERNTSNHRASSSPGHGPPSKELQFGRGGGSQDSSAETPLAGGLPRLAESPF
Chain of rat glucagon receptor (P30082 27-485): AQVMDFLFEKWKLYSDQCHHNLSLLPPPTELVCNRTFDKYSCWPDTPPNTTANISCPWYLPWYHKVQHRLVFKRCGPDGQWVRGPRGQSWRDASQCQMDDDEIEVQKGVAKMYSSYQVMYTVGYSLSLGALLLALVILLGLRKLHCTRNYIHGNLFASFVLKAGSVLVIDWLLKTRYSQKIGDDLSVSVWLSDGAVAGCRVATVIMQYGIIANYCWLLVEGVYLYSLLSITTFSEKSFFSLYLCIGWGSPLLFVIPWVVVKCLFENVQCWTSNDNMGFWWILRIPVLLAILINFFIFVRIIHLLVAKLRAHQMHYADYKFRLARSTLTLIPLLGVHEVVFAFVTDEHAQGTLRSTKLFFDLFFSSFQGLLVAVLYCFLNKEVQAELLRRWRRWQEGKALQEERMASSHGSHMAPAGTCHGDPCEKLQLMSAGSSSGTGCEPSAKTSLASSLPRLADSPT
Chain of mouse glucagon receptor (Q61606 27-485): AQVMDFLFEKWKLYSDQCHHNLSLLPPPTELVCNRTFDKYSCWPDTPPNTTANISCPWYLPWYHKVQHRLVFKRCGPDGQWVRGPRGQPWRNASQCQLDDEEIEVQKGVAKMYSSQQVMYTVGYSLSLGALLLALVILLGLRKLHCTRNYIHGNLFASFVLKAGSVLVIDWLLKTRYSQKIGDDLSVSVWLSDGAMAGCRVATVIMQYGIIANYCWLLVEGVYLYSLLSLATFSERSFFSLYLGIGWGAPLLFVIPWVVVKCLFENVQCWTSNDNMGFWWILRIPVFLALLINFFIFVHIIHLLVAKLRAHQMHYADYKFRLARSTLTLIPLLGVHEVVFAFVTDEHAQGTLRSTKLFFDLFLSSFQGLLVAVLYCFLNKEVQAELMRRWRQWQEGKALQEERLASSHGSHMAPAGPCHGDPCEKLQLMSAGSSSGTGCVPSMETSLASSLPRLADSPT

| Binder | cAMP EC50 (assay 1) (human glucagon receptor [1]) [nM] | cAMP EC50 (assay 1) (human GLP-1 receptor [2]) [nM] | cAMP EC50 (assay 1) [3] [nM] | EC50 at the GLP1R at 0% HSA (calculated) (human GLP-1 receptor [4]) [nM] | cAMP EC50 (assay 1) (human glucagon receptor [5]) [nM] | cAMP EC50 (assay 1) (human GLP-1 receptor [6]) [nM] | cAMP EC50 (assay 1) [7] [nM] | cAMP EC50 (assay 1) (human glucagon receptor [8]) [nM] | cAMP EC50 (assay 1) (human GLP-1 receptor [9]) [nM] | cAMP EC50 (assay 1) [10] [nM] | cAMP EC50 (assay 2, 4.4% human serum albumin) (human glucagon receptor [11]) [nM] | cAMP EC50 (assay 2, 4.4% human serum albumin) (human GLP-1 receptor [12]) [nM] | cAMP EC50 (assay 2, 3.2% mouse serum albumin) (mouse GLP-1 receptor) [nM] | cAMP EC50 (assay 2, 3.2% mouse serum albumin) (mouse glucagon receptor) [nM] | cAMP EC50 (assay 2, 3.2% rat serum albumin) (rat GLP-1 receptor) [nM] | cAMP EC50 (assay 2, 3.2% rat serum albumin) (rat glucagon receptor) [nM] | free peptide at 4.4% HSA [13] [%] |
| --- | --- | --- | --- | --- | --- | --- | --- | --- | --- | --- | --- | --- | --- | --- | --- | --- | --- |
| B1 | 0.0089 | 0.012 | 47 | – | – | – | – | – | – | – | – | – | – | – | – | – | – |
| B2 | – | – | – | 0.007 | 0.00623 | 0.018 | 45 | 0.015 | 0.0395 | 56.6 | 0.402 | 0.455 | 1.1 | 5.46 | 0.081 | 45.1 | 0.85 |
| B3 | 0.0063 | 0.018 | 3.6 | – | – | – | – | – | – | – | – | – | – | – | – | – | – |
